According to patent US20120064125A1 (priority 2009, published 2012):

Test system: USA300 strain LAC biofilm
Assay: Protease and DNaseI treatment of USA300 titanium biofilms (CLSM, COMSTAT)
Type: cell-based, Staphylococcus aureus
Conditions: 2 day biofilm, Proteinase K 2 μg/mL or DNaseI 0.5 Units/mL
Description: FIGS. 4A-B. Protease and DNaseI treatment of USA300 titanium biofilms. Biofilms of LAC with plasmid pCM12 were grown for two days on titanium. Biofilms were either untreated or grown in the presence of Proteinase K or DNaseI. For treatments, Proteinase K was added to 2 μg/mL and DNaseI was added to 0.5 Units/mL to the flow cell media. At 6 and 22 hr, CLSM images were obtained and analyzed. (FIG. 4A) Representative CLSM image reconstructions generated from a z series. Each side of the image grid square is 20 μm. (FIG. 4B) COMSTAT analysis of images represented in terms of average thickness (μm) and biomass (μm^3/μm^2). Green triangles represent untreated biofilm, red circles represent DNaseI treatment, and black squares represent Proteinase K treatment. Error bars represent standard deviation.
Biofilm Assays. For biofilms grown on glass, flow cell biofilm growth, confocal scanning laser microscopy (CSLM), and computer image analysis were performed as previously described (Boles and Horswill, 2008). […] For biofilm dispersal tests, AIP type I (AIP-I) was synthesized and quantified using an intein system (Malone et al., 2007), and biofilm dispersal tests were performed as previously described (Boles and Horswill, 2008). […] LAC biofilm integrity was monitored at 6 hr and 22 hr, and COMSTAT analysis was performed to quantify the biofilm properties. […]

B1: proteinase K: Proteinase K (Research Productions International), protease added to flow cell media (protein, UniProt P06873 106-384, looked up)
Proteinase K: AAQTNAPWGLARISSTSPGTSTYYYDESAGQGSCVYVIDTGIEASHPEFEGRAQMVKTYYYSSRDGNGHGTHCAGTVGSRTYGVAKKTQLFGVKVLDDNGSGQYSTIIAGMDFVASDKNNRNCPKGVVASLSLGGGYSSSVNSAAARLQSSGVMVAVAAGNNNADARNYSPASEPSVCTVGASDRYDRRSSFSNYGSVLDIFGPGTSILSTWIGGSTRSISGTSMATPHVAGLAAYLMTLGKTTAASACRYIADTANKGDLSNIPFGTVNLLAYNNYQA
In the case of B1, the “LAC biomass detached from the titanium surface” value (6 hr) is reported as “approximately 93%” and the “LAC biomass detached from the titanium surface” value (22 hr) is reported as “all of the LAC biomass had detached”.
